In the nanobody polyreactivity screen of Harvey et al. (2022):

Experiment: yeast display, Sf9 membrane polyspecificity reagent, FACS + sequencing; frameworks hold sequencing errors
In short: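 Nanobodies from a synthetic yeast display library (Saccharomyces cerevisiae BJ5465), induced 36–48 hours with galactose, were stained 1 hour at 4 °C with 10% biotinylated, detergent-solubilized Sf9 membrane reagent, enriched on streptavidin microbeads, then FACS-sorted. Anti-HA (expression) and streptavidin (reagent binding) fluorescence set low and high (top ~1%) gates. Polyreactivity labels come from the gate of origin. Genes were colony-PCR amplified, MiSeq 2 × 250 sequenced and filtered by CDR length.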

Sequence	polyreactivity (PSR sort gate)
QVQLEESGGGLVQAGGSLRLSCAASGSIFVYNAMGWYRQAPGKERELVAAISQRGGSTYYADSVKGRFTISRDNDKNTVYLQMNSLKPEDTAVYYCAAGPGDSGDDYWGQGTQVTVAS	low polyreactivity
QVQLEESGGGLVQAGGSLRLSCAASGSIFVYYAMGWYRQAPGKERELVAAISSSGTSTYYADSVKGRFTISRDNAKNTVYLQMNSLKPEDTAVYYCATTRRYAYRGGHNYWGQGTQVTVSS	high polyreactivity
QVQLEESGGGLVQAGGSLRLSCAASGSIFYTYAMGWYRQAPGTERELVAAISRSGGSTYYADSVKGRFTISRDNAKNTVYLQMNSLKPEDTSVYYCAARPPYRVGIVPLGRREYYWGQGTQVTVSS	high polyreactivity
QVQLEESGGGLVQAGGSLRLSCAASGSILPKYDMGWSRQAPGKERELVAAITRTGGRTYYADSVKGRFTISRDYAKNTVYLQMNSLKPEDTAVYFCAVRGFFWSTRSYRIRSEYDYWGQGTQVTVSS	low polyreactivity
QVQLEESGGGLVQAGGSLRLSCAASGSTFDVYAMGWYRQAPGKERELVAAISRSGGSTYYADSVKGRFTISRDTAKTTVYLQMNSLQPEDTAVYYCNARLARWGSYEYNYWGQGTQVTVSS	low polyreactivity
QVQLEESGGGLVQAGGSLRLSCAASGSTFESYAMGWYRQAPGKERELVAAISWRVGSTYYADSVKGRFTISRDNAKNTFYLQMNILKPEDTAVYYCASKGWYSHYGGYDYWGQGTQVTVSS	low polyreactivity
QVQLEESGGGLVQAGGSLRLSCAASGSTFHINAMGWYRQAPGKEREFVADINWSGGSTYYADSVKVSFTISRDNAKNTVYLQMNSLKPADTAVYYFAADVGVFTYSPYDAGEHDYWGQGTLVTVSS	low polyreactivity
QVQLEESGGGLVQAGGSLRLSCAASGSTFIVNAMGWYRQAPGKERELVATISGGDSTDYADSVKGRFTISRDNAKNTVYLQMKSLKPEDTAVYYCNAEVHQYYFTPYDYWGQGTQVTFSS	low polyreactivity
QVQLEESGGGLVQAGGSLRLSCAASGSTFTFYAMGRYRQAPGKERELVAAINGRGGSTYYADSVKGRFTISRDNAKNTVYLQMNSLKPEDTAVYYCATRLYYSVRYNMGYWGQGTQVTVSS	high polyreactivity
QVQLEESGGGLVQAGGSLRLSCAASGSTFYDYAMGWYRQAPGKERELVAAINGNGDSTYYADSVKGRFTISRDNAKNTVYLQMNSLKPEDTAVYYCAAYLGWGYDYWGQGTLVTVSS	low polyreactivity
QVQLEESGGGLVQAGGSLRLSCAASGSTFYGYGMGWYRQAPGKERELVAAITGSGDTTYYADSVKGRFTISRDNAKNTVYLQMNSLKTEDTAVYYCNARWHAEYDYWGQGTQVTVSS	low polyreactivity
QVQLEESGGGLVQAGGSLRLSCAASGSTFYKYAMGWSRQAPGKERELVASITWSGTSTYYADSVKGRFTISRDNAKNTVYLQMNSLKPEDTAVYYCNAGLEYYYWGYTWEFDYWGQGTQVTVSS	low polyreactivity
QVQLEESGGGLVQAGGSLRLSCAASGSTFYVYAMGWYIQAPGKERELVAAITDSGGSTYADSVKGRFTISRDNAKNTVYLQMNSLKPEDTAVYADSTYTWYYYYWGQGTQVTVSS	low polyreactivity
QVQLEESGGGLVQAGGSLRLSCAASGSTFYYNAIGWYRQAPGKERELVAGITSGTGTKYADSVKGRFTISRDNAKNRVYLQMNSLKPEDTAVYYCAKDGTRYGSAPFGYWGQGTQVTVSS	low polyreactivity
QVQLEESGGGLVQAGGSLRLSCAASGSTFYYYALGWYRQAPGKERELVATINKIVGITYYADSVKGRFTISRDNAKNTVYLQRNSLKPEDTAVYYCAVQDTSYDVQYSYGYWGQGTQVNVSS	low polyreactivity
QVQLEESGGGLVQAGGSLRLSCAASGTTFGINCYGMYRQAPGKERELVAGISVSGGSTYYADSVNGRFTISRDNAYNTVYLQMNSLKPEDTAVYYCAAKWFNRDFDYWGQGTQVTVSS	low polyreactivity

Sequence	polyreactivity (PSR sort gate)
QVQLEESGGGLVQAGGSLRLSCAASGYIFSQYAMGWYRPAPGKERELVASISGSGSSTYYADSVKGRFTISRDNAKNTVYLQMNSLKPADTAVFYCAAEWTWGWYITFDYWGQGTQVTVSS	high polyreactivity
QVQLEESGGGLVQAGGSLRLSCAASGYNFVYYAMGWYRQAPGKERELDAAITGRGGSTYYADSVKGRFTISRDNAKNTVYLQMNSLKPEDTAVYYCAKKRIGPVKQFGRDYNYWGQGTQVTVSS	high polyreactivity
QVQLEESGGGLVQAGGSLRLSCAASGYTVVLYAMGCDIQAPGKERELVAVISWSGGSTYYADSVKGRFTISRDNAKNTVYLQMNSLKPEDTAVYYCAVSRYYNDYWGQGTQVTVSS	low polyreactivity
QVQLEESGGGLVQAGGSLRLSCAASVSIFFVNAMGWYRQAPGKERELVASISRDGSTNYADSVKGRFTISRDNAKNTVYLQMNSLKPEVTAVYYCNGLSADWYPEEDYWGQGTQVTVSS	low polyreactivity
QVQLEESGGGLVQAGGSLRLSCAGSGRNFGVNTMRWYRQATGKERDLVAAISFSGVSTYYADSVKGRFTISRDNAKNTVYLQMNSLKPEDTPVYYCAAVPYRQYPCGGYWGQGTQVTVSS	low polyreactivity
QVQLEESGGGLVQAGGSLRLSCDASGRTFDTNAMGWYIQAPGKERELVAVITARGGNTSYADSVKGRFTISRDNSKNTVYLQMNSLKPEDTAVYYCAAPADDTVHYQNYYWGQGTQVTVSS	low polyreactivity
QVQLEESGGGLVQAGGSLRLSCPASGYTFESNAMGWSRQAPRKERELVAAINGGGGTYYADSVKGRFTISRDNGKNTVYLQMNSLKPEDTAVNVDIGFAYVPNYDYWGQGTQVTVSS	low polyreactivity
QVQLEESGGGLVQAGGSLRLSSAASGFIYVYAMGWYRQAPGKVRELVAAITATGDSTYYADSVKGRFTISRDNAKNTVYLQMNSLKPEDTAVYYCARNVNAQKVLGGFDSWGQGTQVNVSS	low polyreactivity
QVQLEESGGGLVQAGGSLRLSSAASGRTFYDNTMGWYRQSPVKERELVAAISRGGSTYADSVKGRFTISRDNAKNSVYLQMNSLKPEDTAVYYCAAVPRYQYGYWGQGTQVTVSS	low polyreactivity
QVQLEESGGGLVQAGGSLRLSSPASGFIFRYYAMGWYRQAPGKERELVAAISGRGGSTYYADSVKGRFTISRDNAKNTVYLQMNSLKPEDTAVYYCAVDVPSQGGDYWGQGTQVTVSS	high polyreactivity
QVQLEESGGGLVQAGGSLRLTCAASGRIFHSNDMGWNRQAPGKERELVAAITKVGGTNYADSVKGRFTISRDNAKNTVSLQMNSLKPEDTAVYYCAAAFYLYSPISGVYLSYSEYDYWGQGSQVTVSS	high polyreactivity
QVQLEESGGGLVQAGGSLRLTCAASGRTIVYNAMGWYRQAPGKERELVAAIDGGTGSTYYADSVKGRFTISRDNAKNTVYLEMNCLKPEDTAVYYCAVETYGGGYPVTYDYWGQGTQVTVSS	low polyreactivity
QVQLEESGGGLVQAGGSLRLTCAASGSTSQIYAMGWYRQAPGKERELVAAINGVGSTNYADSVKGRFTISRDNAKNTVYLQMNSLKPEDTAVYYCAADGTALHEYLGDYDYWGQGTQVTVSS	low polyreactivity
QVQLEESGGGLVQAGGSLRLTCAGSGSIFDGNSMGWDRQAPGKEMELVASISWSGGTTYYADSVKGRFTISRDNATNTVYLQMNSLIPEDTAVYYCNKAGGYRRYSFWSGDYWAGLDFLGQGTQVTVSS	low polyreactivity
QVQLEESGGGLVQAGGSLRLTCAGSGSISYRYDMGWYRQATGKEMELVAVITGSGGSTYYADSVKGRFTISRDNAKNTVYLQMNSLKPEDTAVYYCANEPGENWTVSWRDFDFWGQGTQVTVSS	low polyreactivity
QVQLEESGGGLVQAGGSLRVSCAASGRTSEIYTLGGYRTAPGKERELVASINTNYADSGKGRFTISRDIAKNTVYLQLISLKPDDTAVYYCNADDTIEFNYWGQGTQVTVSW	low polyreactivity
